B1: ZNF232 (parent)
chain: HSGEKPFICKECGKAYGWCSELIR
B2: FCHO1 (parent)
chain: HLELTRKLQDLIKDVLRYGEEQLK

Variants of: B1
Assay: protein stability index of a GFP-peptide fusion (GPS, HEK-293T) (PSI 1-6); higher = more stable
Settings: c terminus: a fixed tail appended
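Further: lentivirally expressed fusions sorted by FACS into six bins by GFP to DsRed ratio, PSI derived from sequencing read proportions per bin multiplied by bin number.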

Variant	protein stability index
R24L	1.71
R24N	2.03
R24V	2.02
R24H	3.51
R24K	2.08
R24D	2.85
R24S	2.23
R24Q	2.44
R24T	2.32
R24I	1.99
R24M	1.74
R24W	2.09
R24F	2.23
R24P	2.66
R24G	1.45
R24Y	1.61
R24E	2.33

Variants of: B2
Assay: as above
Settings: c terminus: a fixed tail appended

Variant	protein stability index
L4W	3.23
L4K	1.43
L4Q	2.58
L4S	2.76
L4Y	2.41
L4I	2.12
L4C	4.01
L4V	3.17
L4T	1.55
L4P	1.58
L4E	1.46
L4N	1.75
L4H	3.01
L4D	2.01
L4M	2.21
L4G	2.02
L4F	3.76
H1V	1.31
H1Y	2.02
H1P	1.79
H1Q	2.8
H1L	1.55
H1N	3.04
H1G	2.03
H1W	1.9

Variant	protein stability index
H1R	5.3
H1M	2.23
H1E	2.81
H1F	1.99
H1I	1.74
H1K	1.46
H1D	2.68
H1T	2.28
H1S	2.96
L8Q	3.3
L8I	4.57
L8A	1.94
L8M	1.45
L8G	2.46
L8W	1.36
L8K	2.74
L8T	2.39
L8E	3.62
L8R	3.39
L8D	4.04
L8N	3.85
L8Y	1.64
L8V	1.97
L8S	3.28
L8C	3.07

Variant	protein stability index
L8P	2.71
L8H	2.71
L8F	2.29
K13M	2.22
K13P	2.63
K13G	1.78
K13A	2.14
K13S	2
K13E	2.37
K13Q	1.59
K13N	1.9
K13W	2.16
K13D	2.06
K13H	1.8
K13T	1.67
K13V	2.29
K13I	4.84
K13C	2.28
K13L	4.09
K13R	2.3
K13Y	1.33
K13F	1.59
R6G	2.11
R6P	1.79
R6T	1.92

Variant	protein stability index
R6V	1.69
R6H	3.21
R6C	2.25
R6I	1.95
R6S	2.4
R6K	2.69
R6F	1.9
R6L	1.29
R6N	1.61
R6A	1.45
R6M	1.46
R6D	1.84
R6W	2.34
R6E	1.85
R6Q	1.86
R6Y	1.9
L2I	1.87
L2T	2.88
L2F	1.95
L2E	2.63
L2C	3.33
L2M	5.22
L2W	1.41
L2G	3.28
L2D	2.92

Variant	protein stability index
L2A	2.42
L2R	2.11
L2V	3.29
L2N	2.76
L2Q	2.94
L2Y	2.04
L2H	1.64
L2K	2.13
L16F	2.77
L16S	2.09
L16Y	1.93
L16G	2.61
L16R	1.69
L16V	4.13
L16A	1.04
L16W	3.05
L16Q	2.54
L16T	2.25
L16P	2.9
L16D	3.32
L16M	2.69
L16E	3.18
L16C	2.91
L16N	2.82
L16I	2.39

Variant	protein stability index
L16H	2.73
L16K	1.44
Y18H	2.12
Y18E	1.77
Y18C	1.61
Y18T	1.88
Y18Q	3.96
Y18L	2.53
Y18P	2.42
Y18A	2.74
Y18M	2.65
Y18V	3.06
Y18D	2.63
Y18F	2.25
Y18G	1.83
Y18R	2.27
Y18S	1.82
Y18N	1.84
Y18K	3.41
G19D	2.09
G19K	1.59
G19E	1.88
G19C	1.4
G19H	2.29
G19I	2.01

Variant	protein stability index
G19F	2.83
G19A	2.5
E3R	2.74
E3S	3.71
E3L	2.7
E3C	2.31
E3F	2.54
E3Y	2.52
E3V	2.56
E3P	2.72
E3H	3.08
E3T	3.33
E3Q	3.73
E3A	2.96
E3W	2.83
E3I	2.88
E3M	3.36
E3K	2.17
E3N	3.5
E3D	2.84
V15H	1.83
V15S	1.88
V15M	3.23
V15F	2.12
V15D	4.22

Variant	protein stability index
V15W	3.69
V15I	2.96
V15N	2.98
V15R	2.74
V15A	2.98
V15G	2.15
V15P	2.27
V15E	3.18
V15Q	2.49
V15K	1.87
D14A	2.45
D14Q	4.72
D14E	2.9
D14I	2.7
D14V	3.29
D14K	4.59
D14C	3.08
D14S	3.79
D14R	3.44
D14N	2.76
D14G	1.68
D14Y	2.66
D14L	1.99
D14H	3.31
D14M	1.3

Variant	protein stability index
D14F	1.77
D14P	2.97
K7C	1.55
K7I	2.06
K7N	2.03
K7S	2.75
K7H	1.99
K7V	1.74
K7R	2.78
K7P	1.51
K7F	2.12
K7Y	1.78
K7A	2.33
K7D	2.27
K7Q	2.28
K7L	3.41
K7M	3.46
K7G	2.68
K7T	2.96
K7W	1.87
K7E	2.28
R17Y	2.08
R17N	2.64
R17L	2.88
R17M	1.98

Variant	protein stability index
R17V	2.61
R17T	1.54
R17C	1.83
R17Q	2.26
R17E	1.76
R17F	3.06
R17P	2.95
R17D	1.73
R17G	1.58
R17A	1.97
R17S	1.46
R17H	3.28
R17I	1.54
Q9I	1.22
Q9F	2.25
Q9A	2.81
Q9W	2.68
Q9K	3.73
Q9P	2.81
Q9H	1.65
Q9D	1.24
Q9G	1.31
Q9L	2.26
Q9Y	3.31
Q9M	3.55

Variant	protein stability index
Q9V	2.56
T5E	1.88
T5V	2.63
T5C	2.55
T5M	3.28
T5P	1.94
T5A	1.89
T5Q	3.54
T5L	3.42
T5D	2.53
T5F	2.34
T5I	2.38
T5W	2.05
T5G	2.48
T5H	3.29
T5N	2.14
T5K	5.01
T5Y	3.13
T5S	3.79
D10L	1.44
D10R	2.58
D10G	3.66
D10Y	4.45
D10K	2.72
D10N	2.62

Variant	protein stability index
D10V	4.56
D10A	3.54
D10I	3.93
D10W	2.82
D10E	3.03
D10P	1.99
D10C	3.93
L11E	4.22
L11Q	2.47
L11A	2.5
L11H	2.51
L11K	2.38
L11M	3.68
L11S	2.67
L11G	2.38
L11T	1.63
L11N	2.56
L11Y	1.09
L11C	1.67
L11P	4.34
L11D	4.29
L11F	3.54
L11R	1.2
L11I	3.17
I12H	3.05

Variant	protein stability index
I12T	2.31
I12D	4.11
I12N	4.18
I12P	3.65
I12R	3.39
I12K	3.17
I12W	1.89
I12F	2.57
I12M	2.25
I12G	2.88
I12C	1.73
I12Q	3.4
I12Y	2.34
I12E	3.82
I12L	1.77
I12S	2.51
I12A	2.27

From the supplement of paper PMC10567573
